Reference: paper doi:10.1101/681668 (bioRxiv, 2019)
Positions count from the first letter of the chain named.

Key:
Test in all cases: pull-down
[1] = target: T1, MBP-ORC1 CDK123 (human, UniProt Q13415 1-861, S258A | S273A | T375A)
T1 sequence: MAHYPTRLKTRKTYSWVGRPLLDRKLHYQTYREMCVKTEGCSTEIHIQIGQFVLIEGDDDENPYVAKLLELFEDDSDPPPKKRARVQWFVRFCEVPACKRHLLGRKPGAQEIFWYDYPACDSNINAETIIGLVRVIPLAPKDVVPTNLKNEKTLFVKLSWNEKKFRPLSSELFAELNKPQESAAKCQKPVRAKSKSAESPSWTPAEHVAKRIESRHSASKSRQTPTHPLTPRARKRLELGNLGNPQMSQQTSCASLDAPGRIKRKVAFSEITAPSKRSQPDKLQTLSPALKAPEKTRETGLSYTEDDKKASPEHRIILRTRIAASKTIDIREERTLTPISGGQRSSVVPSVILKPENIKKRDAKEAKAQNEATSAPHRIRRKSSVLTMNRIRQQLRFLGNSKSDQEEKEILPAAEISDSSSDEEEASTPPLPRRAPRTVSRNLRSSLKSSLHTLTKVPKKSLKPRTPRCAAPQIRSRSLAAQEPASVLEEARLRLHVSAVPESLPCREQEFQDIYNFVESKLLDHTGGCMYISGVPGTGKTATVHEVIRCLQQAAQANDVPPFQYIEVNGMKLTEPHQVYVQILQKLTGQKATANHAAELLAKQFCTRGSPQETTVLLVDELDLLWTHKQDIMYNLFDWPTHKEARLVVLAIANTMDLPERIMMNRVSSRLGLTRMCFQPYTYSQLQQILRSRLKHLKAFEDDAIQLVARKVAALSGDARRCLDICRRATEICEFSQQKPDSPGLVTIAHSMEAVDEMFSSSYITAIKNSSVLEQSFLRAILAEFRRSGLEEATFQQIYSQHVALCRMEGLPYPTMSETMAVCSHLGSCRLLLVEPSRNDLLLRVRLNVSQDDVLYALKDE

[2] = target: T2, MBP-ORC1 R105Q (human, UniProt Q13415 1-861, R105Q)
T2 sequence: T1 sequence with R105Q, A258S, A273S, A375T

[3] = target: T3, MBP-ORC1 CDK3 (human, UniProt Q13415 1-861, T375A)
T3 sequence: T1 sequence with A258S, A273S

Measured: binding result

B1: GST-CDC6 (natural protein)
chain: MPQTRSQAQATISFPKRKLSRALNKAKNSSDAKLEPTNVQTVTCSPRVKALPLSPRKRLGDDNLCNTPHLPPCSPPKQGKKENGPPHSHTLKGRRLVFDNQLTIKSPSKRELAKVHQNKILSSVRKSQEITTNSEQRCPLKKESACVRLFKQEGTCYQQAKLVLNTAVPDRLPAREREMDVIRNFLREHICGKKAGSLYLSGAPGTGKTACLSRILQDLKKELKGFKTIMLNCMSLRTAQAVFPAIAQEICQEEVSRPAGKDMMRKLEKHMTAEKGPMIVLVLDEMDQLDSKGQDVLYTLFEWPWLSNSHLVLIGIANTLDLTDRILPRLQAREKCKPQLLNFPPYTRNQIVTILQDRLNQVSRDQVLDNAAVQFCARKVSAVSGDVRKALDVCRRAIEIVESDVKSQTILKPLSECKSPSEPLIPKRVGLIHISQVISEVDGNRMTLSQEGAQDSFPLQQKILVCSLMLLIRQLKIKEVTLGKLYEAYSKVCRKQQVAAVDQSECLSLSGLLEARGILGLKRNKETRLTKVFFKIEEKEIEHALKDKALIGNILATGLP
binds: [1] | [2] | [3]
